The labels stand for the following.
B1: Tropomyosin isoform Tpm4.2 (natural protein)
chain: not shown
notes: cytoplasmic LMW isoform Tpm4.2 of the TPM4 gene (~247 residues), exons 1b, 9d; an N-terminal extension is stated only for the HMW isoforms; source: E. coli C41(DE3), purified (anion exchange, HiTrap QHP); reduced with DTT before experiments
B2: Tropomyosin isoform Tpm1.12 (natural protein)
chain: not shown
notes: cytoplasmic LMW isoform Tpm1.12 of the TPM1 gene (~247 residues; exon 9c three residues shorter than 9d), exons 1b, 9c; has Cys-154; no N-terminal extension; source: E. coli C41(DE3), purified (anion exchange, HiTrap QHP); reduced with DTT before experiments
B3: Tropomyosin isoform Tpm1.7 with Ala-Ser N-terminal extension (natural protein)
chain: not shown
notes: Ala-Ser N-terminal extension that mimics natural N-terminal acetylation; cytoplasmic HMW isoform Tpm1.7 of the TPM1 gene (~284 residues), exons 1a2b, 6a, 9d; Alpha-helical coiled-coil dimer; source: E. coli C41(DE3), purified (anion exchange, HiTrap QHP)

In the assay the target is F-actin from rabbit skeletal muscle, stabilised by phalloidin (rabbit, UniProt P68135 1-377). The assay can be described thus: co-sedimentation; 10 uM phalloidin-stabilized F-actin mixed with increasing Tpm (0 to 5.5-6 uM; up to almost 40 uM for Tpm1.12); 30 mM Hepes-Na pH 7.3, 200 mM NaCl; 40 min at 25 °C; 100,000 x g for 40 min; SDS-PAGE of pellet and supernatant; K50% = Tpm concentration at which actin is half-saturated. Particulars: both partners purified.
For the molecule B1, the K50% stood at 1.07 µM.

In the case of B2, the K50% was 14.9 µM.

With B3, the K50% is 0.4 µM.

For the origin of these results see article PMC8152229, “Structural and Functional Peculiarities of Cytoplasmic Tropomyosin Isoforms, the Products of TPM1 and TPM4 Genes” (International Journal of Molecular Sciences, 2021).
